Experimental data: patent publication US20190212343A1, “METHODS FOR THE TREATMENT OF DISORDERS RELATED TO PHOSPHORYLATION OF HISTONES” (H. LEE MOFFITT CANCER CENTER AND RESEARCH INSTITUTE, INC., priority 2014, published 2019)

Legend:
[1] = system: pY99-H3 marks at SLC6A4 promoter (5-HTTLPR) and intron 2 (VNTR); test: ChIP with pY99-H3 antibodies and real time PCR at SLC6A4 gene in JAR cells; assay type: cell-based, human; conditions: EGF treatment
Method: (§1) FIGS. 5A-5D show ACK1 deposits pY99-H3 epigenetic marks in SLC6A4 promoter and intron 2. (FIG. 5A) Lysates prepared from JAR cells treated with EGF ligand were subjected to immunoblotting with indicated antibodies. (FIG. 5B) Lysates prepared from JAR cells treated with EGF or AIM-100 were subjected to immunoblotting with indicated antibodies. (FIG. 5C) Total RNA was prepared from JAR cells untreated or treated with EGF ligand followed by quantitative RT-PCR using SLC6A4 and actin primers. The ratio of SLC6A4 to actin is shown. (FIG. 5D) JAR cells were treated with EGF ligand and ChIP was performed using pY99-H3 antibodies followed by quantitative PCR using primers corresponding to intron 2 (VNTR).
Applicant hypothesized that ACK1 deposits pY99-H3 epigenetic marks in promoter (5-HTTLPR) and intron 2 (VNTR) of SLC6A4 gene to regulate its transcription. To test this hypothesis, applicant performed chromatin immunoprecipitation (ChIP) with pY99-H3 antibodies followed by real time PCR for primers corresponding to promoter (5-HTTLPR) and intron 2 (VNTR) of SLC6A4 gene.

SLC6A4 mRNA = SLC6A4 mRNA expression (real time RT-PCR); assay type: cell-based, human; conditions: JAR cells treated with EGF ligand
Method: The ratio of SLC6A4 to actin is shown. (FIG. 5D) JAR cells were treated with EGF ligand and ChIP was performed using pY99-H3 antibodies followed by quantitative PCR using primers corresponding to intron 2 (VNTR). […]
Applicant also identified for the first time that human and mouse serotonin transporter (SLC6A4 or SERT or 5-HTT) gene expression is regulated by ACK1. A novel mechanism was identified that is operational in SLC6A4 gene regulation. ACK1 deposits pY99-H3 epigenetic marks in promoter (5-HTTLPR) and intron 2 (VNTR) of SLC6A4 gene to regulate its transcription. […] Without being bound by theory, applicant believes that expression of Gabra6, Slc6a2, Slc6a4, Slc6a5 and Oxt genes as well as genes shown in Table 2 are also regulated by ACK1/pY99-H3 epigenetic activity/signaling.

[2] = system: histone H3 Tyr99-phosphorylation (ACK1); test: Histone H3 Tyr99-phosphorylation in JAR cells (immunoblotting); assay type: cell-based, human; conditions: EGF alone
Method: as §1
(§2) JAR cells are human placenta-derived epithelial cells that express SLC6A4 or SERT. Applicant first assessed presence of ACK1 signaling in JAR cells by treating these cells with EGF ligand. […] ACK1 activation was also reflected in histone H3 Tyr99-phosphorylation (FIG. SA, 2nd panel).
To validate critical role of ACK1 in histone H3 Tyr99-phosphoryation, JAR cells were treated with EGF or EGF+AIM-100.

ACK1 = ACK1 activation (phosphorylation) in JAR cells, immunoblotting; assay type: cell-based, human; conditions: 10 min of treatment
Method: as §1, §2

[3] = system: histone H3 Tyr99-phosphorylation (ACK1); test: Histone H3 Tyr99-phosphorylation in HEK293 cells (pY99-H3 immunoprecipitation / H3 immunoblot); assay type: cell-based; conditions: HEK293 cells treated with EGF ligand
Method: FIGS. 3A-3E show Ack1 phosphoryltes H3 at Tyr99 residue. […] (FIG. 3B) HEK293 cells co-expressing Myc-tagged Ack1 (WT) or KD mutant ACK1 and FLAG-tagged H3 or Y99F mutant […] were serum-starved (24h) and lysates were immunoprecipitated with pY99-H3 antibodies followed by immunoblotting with FLAG antibody (top panel). (FIG. 3C) HEK293 cells were treated with EGF ligand for indicated time points. Equal amounts of lysates were immunoprecipitated pY99-H3 antibodies followed by with immunoblotting with H3 antibody (top panel). (FIG. 3D) HEK293 cells were treated with ACK1 inhibitor, AIM-100 (5 uM overnight) and/or EGF ligand 20 min. Equal amounts of lysates were immunoprecipitated pY99-H3 antibodies followed by with immunoblotting with H3 antibody (top panel). […] (FIG. 3E) HEK293 cells were treated with increasing concentrations of AIM-100 (1, 2, 3 and 5 μM). Equal amounts of lysates were immunoprecipitated pY99-H3 antibodies followed by with immunoblotting with H3 antibody (top panel).
The Tyrosine99 or Y99 site in H3 protein is evolutionarily conserved (FIG. 3A). To examine whether H3 is ACK1 kinase substrate, HEK293 cells were co-transfected with HA-tagged ACK1 and FLAG-tagged H3 or FLAG-tagged Y99F mutant H3 expressing constructs. ACK I specifically phosphorylated H3 protein, but not the Y99F mutant protein (FIG. 3B). […]

B1: EGF: EGF ligand used to activate ACK1 (protein, UniProt P01133 23-1207, looked up)
Pro-epidermal growth factor: PQHWSCPEGTLAGNGNSTCVGPAPFLIFSHGNSIFRIDTEGTNYEQLVVDAGVSVIMDFHYNEKRIYWVDLERQLLQRVFLNGSRQERVCNIEKNVSGMAINWINEEVIWSNQQEGIITVTDMKGNNSHILLSALKYPANVAVDPVERFIFWSSEVAGSLYRADLDGVGVKALLETSEKITAVSLDVLDKRLFWIQYNREGSNSLICSCDYDGGSVHISKHPTQHNLFAMSLFGDRIFYSTWKMKTIWIANKHTGKDMVRINLHSSFVPLGELKVVHPLAQPKAEDDTWEPEQKLCKLRKGNCSSTVCGQDLQSHLCMCAEGYALSRDRKYCEDVNECAFWNHGCTLGCKNTPGSYYCTCPVGFVLLPDGKRCHQLVSCPRNVSECSHDCVLTSEGPLCFCPEGSVLERDGKTCSGCSSPDNGGCSQLCVPLSPVSWECDCFPGYDLQLDEKSCAASGPQPFLLFANSQDIRHMHFDGTDYGTLLSQQMGMVYALDHDPVENKIYFAHTALKWIERANMDGSQRERLIEEGVDVPEGLAVDWIGRRFYWTDRGKSLIGRSDLNGKRSKIITKENISQPRGIAVHPMAKRLFWTDTGINPRIESSSLQGLGRLVIASSDLIWPSGITIDFLTDKLYWCDAKQSVIEMANLDGSKRRRLTQNDVGHPFAVAVFEDYVWFSDWAMPSVMRVNKRTGKDRVRLQGSMLKPSSLVVVHPLAKPGADPCLYQNGGCEHICKKRLGTAWCSCREGFMKASDGKTCLALDGHQLLAGGEVDLKNQVTPLDILSKTRVSEDNITESQHMLVAEIMVSDQDDCAPVGCSMYARCISEGEDATCQCLKGFAGDGKLCSDIDECEMGVPVCPPASSKCINTEGGYVCRCSEGYQGDGIHCLDIDECQLGEHSCGENASCTNTEGGYTCMCAGRLSEPGLICPDSTPPPHLREDDHHYSVRNSDSECPLSHDGYCLHDGVCMYIEALDKYACNCVVGYIGERCQYRDLKWWELRHAGHGQQQKVIVVAVCVVVLVMLLLLSLWGAHYYRTQKLLSKNPKNPYEESSRDVRSRRPADTEDGMSSCPQPWFVVIKEHQDLKNGGQPVAGEDGQAADGSMQPTSWRQEPQLCGMGTEQGCWIPVSSDKGSCPQVMERSFHMPSYGTQTLEGGVEKPHSLLSANPLWQQRALDPPHQMELTQ
modifications: Pro-epidermal growth factor
deposition of pY99-H3 marks at promoter (5-HTTLPR) and intron 2 (VNTR) of SLC6A4 gene [1]: significant increase in deposition of pY99-H3 marks | SLC6A4 mRNA levels (SLC6A4 mRNA): significant increase in SLC64A mRNA levels | histone H3 Tyr99-phosphorylation [2]: significant upregulation of histone H3 Tyr99-phosphoryation | ACK1 activation (phosphorylation) (ACK1): robust ACK1 activation | endogenous H3 Tyr99-phosphorylation [3]: significant upregulation in endogenous H3 Tyr99-phosphorylation
